US20130101549A1 (Biogen, published 2013)

B1: BIIB65H09 Fab (Fab, V domains shown)
VH: EVQLLESGGGLVQPGGSLRLSCAASGFTFSWYSMWWVRQAPGKGLEWVSSIVSSGGQTRYADSVKGRFTISRDNSKNTLYLQMNSLRAEDTAVYYCARVKGYYYYIDVWGKGTTVTVSS
VL: DIQMTQSPGTLSLSPGERATLSCRASQSVDSSYLSWYQQKPGQAPRLLIYGASTRATGIPARFSGSGSGTDFTLTVSRLEPEDFAVYYCQQHGYSSRTFGQGTKVEIK
notes: Soluble human Fab from a naive phagemid Fab library
B2: BIIB65C10 Fab (Fab, V domains shown)
VH: EVQLLESGGGLVQPGGSLRLSCAASGFTFSYYPMMWVRQAPGKGLEWVSSIWPSGGFTKYADSVKGRFTISRDNSKNTLYLQMNSLRAEDTATYYCARVSSSSWYGYLYWGQGTLVTVSS
VL: not shown
notes: as for B1
B3: BIIB67F11 Fab (Fab, V domains shown)
VH: EVQLLESGGGLVQPGGSLRLSCAASGFTFSNYYMMWVRQAPGKGLEWVSVIGSSGGMTNYADSVKGRFTISRDNSKNTLYLQMNSLRAEDTAVYYCARGYPTGYYDSSGWVYSYYGIDVWGQGTTVTVSS
VL: DIQMTQSPSSLSASIGDRVTITCQASQDTDNRLHWYQQKSGRAPKLLIYDAVNLKRGVPSRFRGSGSGTNFILTITNLQPEDMATYFCQHSDGLSLAFGGGTKLEIK
notes: as for B1
B4: BIIB66C01 Fab (Fab, V domains shown)
VH: EVQLLESGGGLVQPGGSLRLSCAASGFTFSWYSMSWVRQAPGKGLEWVSSISSSGGPTHYADSVKGRFTISRDNSKNTLYLQMNSLRAEDTAVYYCARDSSYSGTSWGQGTLVTVSS
VL: QYELTQPPSVSGTPGQRVTISCSGSSSNIGSEYVYWFQQLPGTAPRLLIYRNDQRPSGVPDRFSGSKSGTSASLAISGLRSEDETDYYCTTWDDSLSGPVFGGGTKLTVL
notes: as for B1
B5: BIIB67F10 Fab (Fab, V domains shown)
VH: EVQLLESGGGLVQPGGSLRLSCAASGFTFSPYMMVWVRQAPGKGLEWVSWISPSGGYTFYADSVKGRFTISRDNSKNTLYLQMNSLRAEDTAVYYCAYGTYPLTYWGQGTLVTVSS
VL: QSELTQTPSVSVSPGQTASITCSGDKLGDKYVSWFQLKPGQSPLLVIYQDSKWPSGIPERFSGSNSGNTATLTISGTQATDEADYYCQVWDISHVVFGGGTKLTVL
notes: as for B1
B6: BIIB69A09 Fab (Fab, V domains shown)
VH: EVQLLESGGGLVQPGGSLRLSCAASGFTFSRYNMWWVRQAPGKGLEWVSVIRSSGGYTGYADSVKGRFTISRDNSKNTLYLQMNSLRAEDTAVYYCARWNSGYSYWDYYYGMDVWGQGTTVTVSS
VL: DIQMTQSPSSLSASVGDRVTITCRASQSISSYLNWYQQKPGKAPKLLIYAASSLQSGVPSRFSGSGSGTDFTLTISSLQPEDFATYYCQQFNTYPITFGPGTKVDIK
notes: as for B1
B7: BIIB66A12 Fab (Fab, V domains shown)
VH: EVQLLESGGGLVQPGGSLRLSCAASGFTFSMYSMQWVRQAPGKGLEWVSVIGSSGGQTGYADSVKGRFTISRDNSKNTLYLQMNSLRAEDTAVYYCARVRDYYGSGSYYLDPWGQGTLVTVSS
VL: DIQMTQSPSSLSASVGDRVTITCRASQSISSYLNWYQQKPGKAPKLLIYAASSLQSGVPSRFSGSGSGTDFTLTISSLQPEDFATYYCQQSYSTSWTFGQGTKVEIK
notes: as for B1
B8: BIIB65B03 Fab (Fab, V domains shown)
VH: EVQLLESGGGLVQPGGSLRLSCAASGFTFSWYRMNWVRQAPGKGLEWVSSIYSSGGPTNYADSVKGRFTISRDNSQNTLYLQMNSLRAEDTAVYYCTREKPDYYDSSGYLDYWGQGTLVTVSS
VL: DIQMTQSPGTLSLSPGERSTLSCRASQSVSSSYLAWYQQKPGQAPRLLIYGASSRATGIPDRFSGSGSGTDFTLTISRLEPEDFGVYYCHQYGRPPVFGPGTKVDIK
notes: as for B1

molecular target: T1, human HER2/ErbB2 on cells (human, UniProt P04626 23-1255); experiment: flow cytometry on CHO cells expressing human HER2
T1 construct: whole, on cells; also called hHER2/ErbB2; wild type HER2/ErbB
Method: CHO cells (Chinese Hamster Ovary cells) stably transfected with hHER2 expression vector and selected in G418 containing medium. G418 resistant clones were pooled and split 24 hours prior to the setup of the assay to obtain 70% confluent monolayer. Routinely, CHO cell line was maintained within 20 passages. Cells were lifted with cell dissociation buffer (Gibco catalog #13151-014), counted, washed and adjusted to 1×10⁶ cells/ml and one ml of cells were then added to each tube (12×75 mm tube Falcon catalog #352054). Cells were pelleted and supernatant removed by centrifugation at 1200 rpm for 5 min and 100 μl of diluted antibodies were then added to the cell pellet. Purified Fabs were tested at a starting concentration of either 210 or 60 μg/ml with 1:3 dilutions in FACS buffer, down to 0.001 μg/ml. FACS buffer used throughout the assay was PBS (without Ca^{+±}/Mg^{+±}) containing 1% BSA (Sigma catalog #A-7906) and 0.1% Sodium Azide (Sigma catalog #S2002). Samples were allowed to incubate on ice for 1 hour and 15 minutes then were washed with 2 ml FACS buffer and centrifuged at 1200 rpm for 5 minutes at 4° C. The supernatant was aspirated and 100 μl of the secondary detection antibody was added to each corresponding tube in FACS buffer. Samples were then incubated for 30 minutes on ice, in the dark. Cells were washed as described above, then, re-suspended in 250 μl FACS buffer per tube/sample.
A full titration was performed on MCF7 and SKBR3 tumor cell lines, and human Her2-CHO and murine Her2-CHO cell lines in order to calculate an approximate EC50 (data not shown, see summary in Table 1).

Row | Binder | EC50 [nM]
1 | B1 | 20
2 | B2 | 6
3 | B3 | 7
4 | B4 | 12
5 | B5 | 2
6 | B6 | 2
7 | B7 | 60
8 | B8 | 15

molecular target: T2, Her2-Fc D1-D2-D3 (MR068); experiment: ELISA, HER2-Fc construct captured by anti-huFc, Fab from 1 ug/ml in 5-fold steps, HRP anti-kappa/lambda
T2 construct: also called ErbB2-Fc Domains 1-3
Method: (§1) Nunc Maxisorp ELISA plates were coated with 5 ug/ml rabbit pAbs anti-human Fc gamma in PBS overnight at 4 degrees. Plates were washed one time with PBST (PBS, 0.05% tween 20) and blocked with 1% BSA in PBS for one hour at room temperature. Plates were washed one time with PBST and incubated with 1 ug/ml HER2-Fc fusion protein for one hour. Plates were washed three times with PBST and dilutions of Fab (four 5-fold serial dilutions, starting at 1 ug/ml) in block were added and incubated for ninety minutes. Plates were washed three times with PBST and incubated with 1:2,000 HRP-labelled goat anti-human kappa (Southern Biotech cat#2060-05) and HRP-labelled goat anti-human lambda (Southern Biotech cat#2070-05) in block for one hour at room temperature. Plates were washed three times with PBST, developed with TMB solution for 5 minutes, and stopped with equal volume 1 N H₂SO₄. Absorbance values were read at 450 nm.

Row | Binder | binding result
9 | B1 | binds
10 | B2 | binds
11 | B3 | binds
12 | B4 | binds
13 | B5 | binds
14 | B6 | binds
15 | B7 | binds
16 | B8 | binds

Molecular target: T3, Her2-Fc D1-D2 (MR067)
T3 construct: also called ErbB2-Fc Domains 1-2
T3 chain: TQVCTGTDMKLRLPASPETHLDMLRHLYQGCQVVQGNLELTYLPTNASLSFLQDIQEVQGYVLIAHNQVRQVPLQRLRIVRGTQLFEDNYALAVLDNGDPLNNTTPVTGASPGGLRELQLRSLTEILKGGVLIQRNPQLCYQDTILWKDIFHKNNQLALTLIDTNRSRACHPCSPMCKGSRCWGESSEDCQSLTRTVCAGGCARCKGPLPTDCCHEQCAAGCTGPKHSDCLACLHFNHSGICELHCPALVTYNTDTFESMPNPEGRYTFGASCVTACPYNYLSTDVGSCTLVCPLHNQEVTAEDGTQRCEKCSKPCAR
Experiment: as above
Method: as §1

Row | Binder | binding result
17 | B1 | no binding (tested: 1 ug/ml)
18 | B2 | binds
19 | B3 | binds
20 | B4 | no binding (tested: 1 ug/ml)
21 | B5 | binds
22 | B6 | binds
23 | B7 | no binding (tested: 1 ug/ml)
24 | B8 | no binding (tested: 1 ug/ml)

molecular target: T4, Her2-Fc D1-D2-D3-D4 (MR069); experiment: as above
T4 construct: made in house, kept apart from the R&D Systems HER2-Fc; also called ErbB2-Fc full length ECD
Method: as §1

Row | Binder | binding result
25 | B1 | binds
26 | B2 | binds
27 | B3 | binds
28 | B4 | binds
29 | B5 | binds
30 | B6 | binds
31 | B7 | binds
32 | B8 | binds

Molecular target: T5, Her2-Fc D1 (MR066)
T5 construct: also called ErbB2-Fc Domain 1
T5 chain: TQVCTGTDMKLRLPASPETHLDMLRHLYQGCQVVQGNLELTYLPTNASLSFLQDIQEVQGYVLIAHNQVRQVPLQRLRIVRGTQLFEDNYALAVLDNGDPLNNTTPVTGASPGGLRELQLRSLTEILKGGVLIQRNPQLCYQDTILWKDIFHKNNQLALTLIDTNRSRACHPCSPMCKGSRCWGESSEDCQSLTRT
Experiment: as above
Method: as §1

Row | Binder | binding result
33 | B1 | no binding (tested: 1 ug/ml)
34 | B2 | no binding (tested: 1 ug/ml)
35 | B3 | binds
36 | B4 | no binding (tested: 1 ug/ml)
37 | B5 | binds
38 | B6 | binds
39 | B7 | no binding (tested: 1 ug/ml)
40 | B8 | no binding (tested: 1 ug/ml)

molecular target: T6, EGFR on MDA-MB-468 cells (UniProt P00533 25-1210, limits assumed); experiment: FACS on MDA-MB-468 cells (EGFR+, HER2-)
T6 construct: whole, on cells; also called MDA-MB-468 tumor cell line (EGFR+, HER2-)

Row | Binder | binding result
41 | B1 | no binding
42 | B2 | no binding
43 | B3 | no binding
44 | B4 | no binding
45 | B5 | no binding
46 | B6 | no binding
47 | B7 | no binding
48 | B8 | no binding

molecular target: T7, murine HER2 on CHO cells (mouse, UniProt P70424 23-1256); experiment: FACS on CHO cells expressing murine HER2
T7 construct: whole, on cells; also called mHER2/ErbB2; murine Her2-CHO

Row | Binder | binding result
49 | B1 | no binding
50 | B2 | no binding
51 | B3 | no binding
52 | B4 | no binding
53 | B5 | no binding
54 | B6 | no binding
55 | B7 | no binding
56 | B8 | no binding
